pKd, pKi: −log10 of the molar value.
Assays:
[1] = molecular target: Purified human plasmin (human); assay: protease inhibition assay (residual amidolytic activity, tight-binding inhibitor fit); enzyme (plasmin 3 nM; FVIIa/sTF 20 nM; pKLK and FXIa 1 nM each) incubated with inhibitor (10^-1 to 2 x 10^3 nM; up to 3 µM in Figure 3B) for 1 h at room temperature in TBS pH 7.5 (50 mM Tris-HCl, 100 mM NaCl), 0.1 mg BSA/mL, 2 mM Ca2+; synthetic substrate added to 1 KM; Ki corrected for substrate
[2] = molecular target: DIP-δplasmin (active-site blocked δplasmin; recombinant plasmin containing the protease domain and the first kringle domain, treated with DFP); assay: SPR; Biacore T100, 25 °C; DIP-δplasmin or tPA amine-coupled to CM5 chip; analyte KD1-Y11T/L17R-K_(COOH) 100 to 2000 nM in HBS-P (20 mM HEPES pH 7.4, 100 mM NaCl, 0.005% P20), 10 µL/min, 6 min association, 10 min dissociation; regenerated with 20 mM EACA; 1:1 binding model, Kd = kd/ka
[3] = molecular target: Tissue plasminogen activator (Alteplase) (UniProt P00750); assay: as above
Plasma kallikrein = Plasma kallikrein (UniProt P03952); assay: protease inhibition assay (residual amidolytic activity, tight-binding inhibitor fit); enzyme (plasmin 3 nM; FVIIa/sTF 20 nM; pKLK and FXIa 1 nM each) incubated with inhibitor (10^-1 to 2 x 10^3 nM; up to 3 µM in Figure 3B) for 1 h at room temperature in TBS pH 7.5 (50 mM Tris-HCl, 100 mM NaCl), 0.1 mg BSA/mL, 2 mM Ca2+; synthetic substrate added to 1 KM; Ki corrected for substrate
[4] = molecular target: Human factor VIIa in complex with soluble tissue factor (sTF, residues 1-219) (UniProt P08709); assay: as above
[5] = molecular target: Purified human factor XIa (human) (UniProt P03951); assay: as above

With “KD1-L17R-K_(COOH) (60-residue single mutant of human TFPI-2 Kunitz domain 1 with C-terminal IEK), E. coli expressed (domain or fragment)” as the substance, how does the pKi [1] read?
The pKi was 9.05.

With “KD1-Y11T/L17R-K_(COOH) (60-residue double mutant of human TFPI-2 Kunitz domain 1 with C-terminal IEK), E. coli expressed (domain or fragment)” as the substance, how does the pKi [1] read?
Its pKi is 9.23.

With “KD1-Y11T/L17R-K_(COOH) (60-residue double mutant of human TFPI-2 Kunitz domain 1 with C-terminal IEK), Pichia pastoris expressed (domain or fragment)” as the substance, how does the pKi [1] read?
Its pKi is 9.23.

Which results are given for “KD1-Y11T/L17R-K_(COOH) (60-residue double mutant of human TFPI-2 Kunitz domain 1 with C-terminal IEK), expression host not stated for the experiment (domain or fragment)”?
pKd [2]: 7.32; koff [2]: 7.13e-05 s⁻¹; kon [2]: 1490 M⁻¹ s⁻¹; pKd [3]: 7.45; koff [3]: 0.000105 s⁻¹; kon [3]: 2910 M⁻¹ s⁻¹; pKi (Plasma kallikrein): < 5.52; pKi [4]: < 5.52; pKi [5]: < 5.52

With “Wild-type KD1 (Kunitz domain 1 of human tissue factor pathway inhibitor type-2) containing the IIa cleavage site (domain or fragment)” as the substance, how does the pKi [1] read?
Its pKi is 8.22.
